Reference: publication PMC4019695

Key:
[1] = molecular target: Drosophila 80S ribosome (Drosophila (endogenous in fly embryos)) (UniProt P46222); assay: FRET or BRET
[2] = molecular target: Drosophila 80S ribosome (Drosophila (endogenous in fly embryos)) (UniProt P46222); assay: SEC

Kd [1] [nM]	fold reduction of binding against NT-dFMRP [2] [fold]	Substance
> 2000		NT-dFMRP ΔRGG mutant, residues 220-413 (from UniProt Q9NFU0 220-413) (domain or fragment)
61		NT-dFMRP KH2 (I307N) mutant (from UniProt Q9NFU0 220-681) (domain or fragment)
130	2	NT-dFMRP KH1 (I244N) mutant (from UniProt Q9NFU0 220-681) (domain or fragment)
